The record followed here is PMC6318280, “A novel m^6A reader Prrc2a controls oligodendroglial specification and myelination” (Cell Research, 2018).

The assay deals with T1, FLAG-Prrc2a-P2 (residue 761-1408) (mouse, UniProt Q7TSC1 761-1408).
T1 construct: Prrc2a p2 fragment, residue 761-1408, amplified from a mouse cDNA library; holds the region rich in glycine, arginine and glutamic acid (GRE domain); the legend of the pull-down names FLAG-Prrc2a-P2 beside P1, P3 and P4, which fits the proteins purified from HEK293T cells; also called P2 fragment; GRE domain; source: HEK293T, transfected, purified (FLAG beads, eluted with 3xFLAG peptide)
Description: pull-down; in vitro GST pull-down with purified GST-YTHDF2 and purified FLAG-Prrc2a fragments. Conditions: both partners purified.

T1 sequence (Q7TSC1 761-1408): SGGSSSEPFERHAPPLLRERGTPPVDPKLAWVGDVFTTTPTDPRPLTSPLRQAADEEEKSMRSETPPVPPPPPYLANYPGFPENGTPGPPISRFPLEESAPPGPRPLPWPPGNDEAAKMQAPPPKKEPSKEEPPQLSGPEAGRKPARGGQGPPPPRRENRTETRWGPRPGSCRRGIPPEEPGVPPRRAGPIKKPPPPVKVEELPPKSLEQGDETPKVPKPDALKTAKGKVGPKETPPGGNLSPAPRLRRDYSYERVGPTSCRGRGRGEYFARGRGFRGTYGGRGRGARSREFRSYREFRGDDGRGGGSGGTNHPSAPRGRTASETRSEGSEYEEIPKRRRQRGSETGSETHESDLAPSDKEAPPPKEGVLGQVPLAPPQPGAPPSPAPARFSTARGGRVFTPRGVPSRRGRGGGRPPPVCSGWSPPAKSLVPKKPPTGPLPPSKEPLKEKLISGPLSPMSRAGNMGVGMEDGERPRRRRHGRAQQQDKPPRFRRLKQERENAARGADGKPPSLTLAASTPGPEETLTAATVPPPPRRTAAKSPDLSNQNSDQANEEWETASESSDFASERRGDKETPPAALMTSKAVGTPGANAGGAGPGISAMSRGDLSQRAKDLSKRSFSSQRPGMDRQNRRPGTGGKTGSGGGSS

B1: GST-YTHDF2 (natural protein, human, UniProt Q9Y5A9 1-579, looked up)
chain: MSASSLLEQRPKGQGNKVQNGSVHQKDGLNDDDFEPYLSPQARPNNAYTAMSDSYLPSYYSPSIGFSYSLGEAAWSTGGDTAMPYLTSYGQLSNGEPHFLPDAMFGQPGALGSTPFLGQHGFNFFPSGIDFSAWGNNSSQGQSTQSSGYSSNYAYAPSSLGGAMIDGQSAFANETLNKAPGMNTIDQGMAALKLGSTEVASNVPKVVGSAVGSGSITSNIVASNSLPPATIAPPKPASWADIASKPAKQQPKLKTKNGIAGSSLPPPPIKHNMDIGTWDNKGPVAKAPSQALVQNIGQPTQGSPQPVGQQANNSPPVAQASVGQQTQPLPPPPPQPAQLSVQQQAAQPTRWVAPRNRGSGFGHNGVDGNGVGQSQAGSGSTPSEPHPVLEKLRSINNYNPKDFDWNLKHGRVFIIKSYSEDDIHRSIKYNIWCSTEHGNKRLDAAYRSMNGKGPVYLLFSVNGSGHFCGVAEMKSAVDYNTCAGVWSQDKWKGRFDVRWIFVKDVPNSQLRHIRLENNENKPVTNSRDTQEVPLEKAKQVLKIIASYKHTTSIFDDFSHYEKRQEEEESVKKERQGRGK
notes: human YTHDF2 gene subcloned into a pGEX expression vector with GST-tag; also called recombinant GST-YTHDF2; source: E. coli BL21 (DE3), purified (FPLC, Profinity GST cartridge)
With B1, the binding result was “binds”.
